Test: soluble on expression in E. coli; label from the status in PepcDB or PDB records

Row | Sequence | soluble on expression in E. coli
1 | MSLSELHALLTFPERPISQSYYVPKLQHFLKSGIPATYTLEQVAAFEHEEKNRNGDKEFRESTDDNKTSNTTPLHVLARSLPLDIKDEELQVVMDMMNILFEYGAGWNFIDYEDKTVGDLFLERNQSRESPLYRRLVEAGVSAELLLRKLNGGDVEFLDTDELIGIEPEESVQTAVDGQKEESVGSDDDATAANQQVYLKTELEYKDDALITKENKDGVMMDWETKIMELASETLFPDPEATNSATILNIGFGMGIIDTFIQARKPYRHYICEAHPDVLAKMKMDGWYEKDNVVILEGRWQDTLNNLLDKGEVFFDGIYYDTFSEHYQDILDLYDVVVGLIKPEGVFSFFNGLGADRSLCYDVYKEIVEIDVATYGMKCDYTRYSLDEQLPDWNDVKRSYFNCNYYYHPRITFAEGHHHHHH | not soluble
2 | MPRISKRQLILESAAAIINEKGADYLTLDAVAQRAGISKGGLFYHFKSKDELIKELVNYANNLYRDNVNQHIGNEKNKKGQWLNAFIEATRAHRTDNAPITSGMLAAQGTNRSLLSPLKTSYQEWQYQITHDGLDEVDATIIRLAVDGLWLSEIFGISAIDEEMREKVIERLKMQIEKN | not soluble
3 | MGSDKIHHHHHHVTVSAFVLLLCRRAIVTLDSTPAFSTDPELICFSSRFQDEMEMYAPAEVVAHYLDRHEEWFRRCAEPMATTSIGKDAYAIVLGRYGSLGFEVEPQIGLELLPADQGVYRICTVPVPGYESQGYQVDFQASLSLDRLTHETEAPVTEATAVAWDLLLTVGIRLPRFIHVLPQKLVHSTGDHLLRQIVRQTSRRLTHRVQEDFHQQLNLPLPPRRHARF | not soluble
4 | MKLIILDRDGVVNQDSDAFVKSPDEWIALPGSLQAIARLTQADWTVVLATNQSGLARGLFDTATLNAIHDKMHRALAQMGGVVDAIFMCPHGPDDGCACRKPLPGMYRDIARRYDVDLAGVPAVGDSLRDLQAAAQAGCAPWLVQTGNGRKTLAQGGLPEGTRVCEDLAAVAEQLLQEA | soluble
5 | MSLMLYFITFREARVLLKSRDLALINVDLMKTGKKIRVRVSKDYVEFPDGSRVKKEIIKRIAEDEGNVYFVRDGEVFKAAIAGEHFYKLVPTIPPTIEINGIRMHRTKGTDPLKDTIAKVNTVKPREGEVVLDTCMGLGYTAIESAKRGARVITIEKDPNVIELAKINPWSRELFESPKIKILQGDSFDLIKKFEDESFDVIIHDPPRFSLAGELYSEEFYMEMFRVLKPGGRLFHYVGNPGKRYRGLDLQKGVMERLRRVGFMKVRRVQEALGVFALKPSLEEGHHHHHH | not soluble
6 | MGSDKIHHHHHHMMTSTPRLLQAIQQTTTAILKTNLVGIYLHGSYVLGSYNEQVSDLDYLIVVRRSLTLAEKRQLMTATITQLWPLAPHKGLEFHVLLLSATQHFVHPCPFDFHFSKYHYEDYQRTPLAYLKAMHGTDPDLAAHLTILQAAGQVLLGPAITTVFGPIPAVAYWDSIKSDIANAETAIVQLPMYTVLNLCRVRAYQQDQLIISKQAGGEWGLQQLPTQWHPLIRQALAAYAGQQDEQVIRWSRPNLVAFARIMLAELGLKSE | not soluble
7 | MAADPVFKEALQCIRCASCTNVCPVFQLVSGQVYGYIYNGGIGSVLTAFFNSLEDAVDPQSLCIGCRRCAEVCPAKINIPDLVLKLRERVVTKQGLEHHHHHH | not soluble
8 | MSLTSRVSGVISTDEIIVILSVFVRYDVEQPSKLDRVRADYNVHYWSQGFFGIDDQGEVYVSPRKDKAHQTQLSSIVKQLEARDLNLPVLVRFPQILHQRVHNICDAFNQAIEEYDYPNKYLLVYPIKVNQQKEVVDEILASQAELEHKQLGLEAGSKPELLAVLAMAQQASSVIVCNGYKDREYIRLALIGEKLGHKVFIVLEKLSELDLVLKEAKSLGVKPRLGLRIRLASQGAGKWQSSGGEKSKFGLAASQVLTVINRLKAENQLEALQLVHFHLGSQMANIRDVRNGVNEAVRFYCELRELGAHIDFFDVGGGLAVDYDGTRSQSSNSMNYGLHEYARNIVSTVSDVCNLYGQPRPVIISESGRSITAHHAVLITNVIGTEAYSPEEIPAPGADAPMLLKNMWRGFEEVQHGTDDRALIEIYNDTQSDLSEAHSQFATGVLNLEHRAWAEQLSLRIYHELRQKMSNKNRFHRPILDELQERLADKFFVNFSLFQSLPDAWGIDQVFPVLPLSGLEEMNDRRAVMLDITCDSDGAVEQYVEGQGIESTLPVPAWTSDKPYLMGFFLVGAYQEILGDMHNLFGDTHSAVVNINDNGESEIAFINEGDTVEDMMRYVHIDVDKIRTNYRQLVSQRVAKEEQETVLAELELGLSGYTYLEDFEGHHHHHH | soluble
9 | MLRKQARQRREYLYNKALTERLKSKQKIQETVVKSINENKAIGSKNVKKSLTAYKSLKYADEGVDDRTVNDEYHYAGCEDPKIMLTTSHNPSSRLKMFMKELRLIIPNAQQMNRGNYQLTTLMHACRANNVTDFLIVHEHRGIPDSLVVCHLPYGPTAFFNISDVVMRHDIPDIGHMSEQKPHLIFNNFKTPIGLRTVKILKHLFPVPKENSQRVMSFLNHNDSIIFRHHQYKYVNKELELTEVGPRFSLKLYQIKLGTLENIKAADTEWINRPYMNTSQKRLIFSNDPGIINKDTEALEHHHHHH | soluble
10 | MGSDKIHHHHHHMKRVIINADDFGLSDGVNRAVIKAWQEGILTSASLMVGGDAFHEAVHLAKANPGLHVGLHLTLVQGRAVGEHGGFPSICDSKGAFSDDPVQTGMRYFFIRSFRKQLYREIEAQIVRFLQTGLPLSHVDGHLNIHMHPVVFDLLCGLMRKHGITTFRLCRENLRANLTLDRERRFGKMVDAFIFSKLAGRCRPILDHLGIGYAQEVKGLLNSGRMTEEYLLRVLDTLEDGTTELYFHPGCLPCAEITRRMPDYRHEEELAALMSPRVKGRLKELGIELGNYRGEVKTYV | not soluble
11 | MGSDKIHHHHHHMNELNCLPQDAVLWGHDILPAATASLEAHGLRHPLTFTVEPLRDFHAQHVAPYLKRGAGAFTDLPPHAPDTGVRCALDACLRAEADSILALGGGSVLDAAKAVSHLHQQQTGRYLPIAAYPTTLSGSEYSHYFGVTETVGPQPFKRSYAVRETVPKVVVIDPKLLVNTPRELLLSSAIKGIDHAVEGMRRVGVDHPHAILAAAGVERFFAVLEKWPAGTDTAEALRSGQITTDDLLQLQLAAWQCYFFPASVIYGLSHRIGHILGGTYGLPHSVTSCITLAPVLQACAATYGNKLNIFCHGETTADAAPALAGRIAGVVKRLGLPYRLRDLDFDRARLAQVAALLRQNYAAEVADLGDGADAMLHTFLERLW | not soluble
12 | MGSDKIHHHHHHMEIHMNPWLNAVAQVEALEDLVLNADLVDSMRERWSGLSGSQVGRINFYTPSFKHHETSEVSACGKNAFPAISITGGDCKLQCDHCKAKILEPMIPVRTPEELDRLVDRIVLDGGRGLLLSGGSDHQNVVHYEPYFPTVRKIKDRYPNLQIAMHTGIATPEFARGMEDAGVDVAMMDVIGAQDTINQVYHLRRSVDDFEAALEALVATRMKVVPHIVIGLHYGELLGEWNALEIIQRHLPSALVLVVIMPQYAASSRPFATPAADEIGKFFMDARAALPETPVLLGCARPSGVHRSITDTYAVMAGLNGVAFPSDGMLALAKHLERDVFVTPSCCSMIVGEEVLALGDETTTVPLDYVPAAPKRRPQLRDIPIVFTA | not soluble
13 | MLRISRDLVIDEDDIEIGFVRASGPGGQNVNKVATSAQLRFDTRKLTLPEDATIRLARIAGQRMTKDGVIVIHAQRFRTQERNRQDAIDRLVEILSEAMIRPKPRRATRPTFGSKQRRLEGKKRRSDVKAGRGRSFDDLEHHHHHH | soluble
14 | MDIRKEFEHLQYFFDSYYNQTFYNAQLEEQFLRFLADEPEWVVRALKLEVEKLERIHHRRDTETWAKIEELVHENSMRYFSFEDGKTFIKVASLLLKDID | not soluble
15 | MNIFDHYRQRYEAAKDEEFTLQEFLTTCRQDRSAYANAAERLLMAIGEPVMVDTAQEPRLSRLFSNRVIARYPAFEEFYGMEDAIEQIVSYLKHAAQGLEEKKQILYLLGPVGGGKSSLAERLKSLMQLVPIYVLSANGERSPVNDHPFCLFNPQEDAQILEKEYGIPRRYLGTIMSPWAAKRLHEFGGDITKFRVVKVWPSILQQIAIAKTEPGDENNQDISALVGKVDIRKLEHYAQNDPDAYGYSGALCRANQGIMEFVEMFKAPIKVLHPLLTATQEGNYNGTEGISALPFNGIILAHSNESEWVTFRNNKNNEAFLDRVYIVKVPYCLRISEEIKIYEKLLNHSELTHAPCAPGTLETLSRFSILSRLKEPENSSIYSKMRVYDGESLKDTDPKAKSYQEYRDYAGVDEGMNGLSTRFAFKILSRVFNFDHVEVAANPVHLFYVLEQQIEREQFPQEQAERYLEFLKGYLIPKYAEFIGKEIQTAYLESYSEYGQNIFDRYVTYADFWIQDQEYRDPDTGQLFDRESLNAELEKIEKPAGISNPKDFRNEIVNFVLRARANNSGRNPNWTSYEKLRTVIEKKMFSNTEELLPVISFNAKTSTDEQKKHDDFVDRMMEKGYTRKQVRLLCEWYLRVRKSS | soluble
16 | MKQPPLEDQYQMFGSIALSAFGAELLRHSLLPELLGKDAASLLYWAGKQLARRYPLGTLDDVAVFFERAGWGELSTGEERNDELYIELSGPIIAARFSLYGSCSFQLEAGFLAQQIEQQKRFVTEAVELPPKRDGKARILVKWDRKQAIE | not soluble
17 | MKQVPPAAPVAPWLGGKKRLHPLILERIEAIPHRAYVEPFVGMGGIFLRRRFRPRLEVMNDRNGEIINLFRILQRHYPQLLEIMRFQICSRREFDRLRLTDPATLTDLERAARFLYLQRLSFGGKPNGSFGISPGNGPLFSLARLEPLLDAARTRLDGVVFECLDWADLIPRYDTAETLFYLDPPYFGGENDYGKGLFDRAQFARIAEILGSLKGAFLLSINDTPEIRALFGRFHLEPVRLNYSVSAAGSTEAQELLVSNRERIATLL | not soluble
18 | RDFSPVPWSQYFESMEDVEVENETGKDTFRVYKSGSEGPVLLLLHGGGHSALSWAVFTAAIISRVQCRIVALDLRSHGETKVKNPEDLSAETMAKDVGNVVEAMYGDLPPPIMLIGHSMGGAIAVHTASSNLVPSLLGLCMIDVVEGTAMDALNSMQNFLRGRPKTFKSLENAIEWSVKSGQIRNLESARVSMVGQVKQCEGITSPEGSKKDHPYTWRIELAKTEKYWDGWFRGLSNLFLSCPIPKLLLLAGVDRLDKDLTIGQMQGKFQMQVLPQCGHAVHEDAPDKVAEAVATFLIRHRFAEPIGGFQCVFPGC | soluble
19 | MCPFDVLASVKDDPSLSPQLREKIGGALTRLREICKTADQPSVAKALPRSCAHNYFKEMISGHAPLRFSCHSSESTHTRVKHFDIASSRLPGPIVMSSSKTLMQRTTPALQSPKEIFAELNVIAFQTLRYIDEVEQIEFDVTNVREHDGSIMEDKERLFLSVCCSVFANFSFFASLHINAEKFLHFLRKLFTCYPLDNSYHNATHAADALQMMSLFFREPTVNFLFSDEEIAICFLAVLAVDVAHPGASDTLLVALDHPLASVFGDVAITEHASLLVLTSLLVLEDNFFFSTPDMAVSVDSAHLLKEALYDVVLNAALRSRPSLMSALRDIETSGRITDADAPKLMAALLVMACNSFAFRSQAQCCRMGAWFLSELHREECEMERHGIRVTLPHVAGADCAAVLSDYINVVVKPVTAATLALVPRDLQDRLEWNADLVDAAASTGGRACKVVVENSLVQWMTSSLSVMEILKKVATHASSVDRKASKCAILNASPSRSQGTAPDMMRADSLSSNSSTSGSMSAAKRDEATSNCPQLSFTSEPCSAAGSPTARPGRSEHYFSFLRLYDKCERAGESAKNFVGQLIFLALQLDPRYIAAYARKEYGDDCCGAECAEMGLLISKMEEAPSTAEVIASRPPGGSFSNRVADEIDHTDSFVLLLMDMYCSREAALAEMESVVLVSDKAKTPPPAEPAAPKAVPQFQQNSPIRMPVNTESKNTGPRLRLVP | not soluble
